One experiment deals with human CCR7-CHO cells (UniProt P32248). Nature of the experiment: FACS binding to CCR7-CHO cells. In general terms: A flow cytometer gives signals particle by particle.
The target in the next experiment is CCR7 (JVM-13) (UniProt P32248). Nature of the experiment: cell binding; JVM-13 cells.
In another experiment the target is CCR7 (CCL-AAT) (UniProt P32248). Nature of the experiment: cell binding; CLL-AAT cells.
For experiment [1], the target named is human chemokine receptor CCR7 (UniProt P32248). The experiment in a line: cell-based or functional assay.
Experiment [2] shares this target. The experiment in a line: flow cytometry, human CCR7 cells (summary table).
For a further experiment, the target named is mouse CCR7 (mouse) (UniProt P47774). The experiment in a line: flow cytometry, mouse CCR7 cells (summary table).

In general, EC50 refers to the concentration that produces a half-maximal response. The term Kd denotes the free concentration of one partner at which half of the binding sites on the other are occupied at equilibrium, for simple one-to-one binding. Lower therefore signals a tighter complex.

Sequence of human chemokine receptor CCR7 (P32248 25-378 limits assumed): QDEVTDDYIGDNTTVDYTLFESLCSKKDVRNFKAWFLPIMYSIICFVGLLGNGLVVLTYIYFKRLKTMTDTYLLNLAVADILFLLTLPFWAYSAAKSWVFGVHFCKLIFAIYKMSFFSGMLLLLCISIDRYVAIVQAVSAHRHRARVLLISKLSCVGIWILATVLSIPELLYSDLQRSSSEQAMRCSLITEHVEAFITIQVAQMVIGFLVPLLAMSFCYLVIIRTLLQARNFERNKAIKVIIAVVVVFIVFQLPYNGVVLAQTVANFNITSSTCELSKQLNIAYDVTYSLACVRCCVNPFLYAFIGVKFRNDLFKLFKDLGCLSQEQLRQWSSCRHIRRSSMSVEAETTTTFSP
Sequence of human CCR7-CHO cells (P32248 25-378): as the sequence (P32248 25-378 limits assumed) above
Sequence of mouse CCR7 (mouse) (P47774 25-378): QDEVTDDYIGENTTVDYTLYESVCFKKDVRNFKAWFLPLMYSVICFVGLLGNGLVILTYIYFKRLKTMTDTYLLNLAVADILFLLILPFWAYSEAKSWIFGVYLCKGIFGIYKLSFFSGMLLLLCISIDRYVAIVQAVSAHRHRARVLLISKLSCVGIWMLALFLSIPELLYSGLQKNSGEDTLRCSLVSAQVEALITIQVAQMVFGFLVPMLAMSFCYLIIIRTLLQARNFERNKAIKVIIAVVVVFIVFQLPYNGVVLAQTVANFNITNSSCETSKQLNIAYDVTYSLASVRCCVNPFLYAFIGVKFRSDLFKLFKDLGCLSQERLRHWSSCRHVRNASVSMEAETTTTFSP
Sequence of CCR7 (JVM-13) (P32248 25-378): as the sequence (P32248 25-378 limits assumed) above
Sequence of CCR7 (CCL-AAT) (P32248 25-378): as the sequence (P32248 25-378 limits assumed) above

In the experiment with human CCR7-CHO cells, IgG 3D12 eBioscience yielded an EC50 of 3.2 nM.

Consider MAB197, for which the Kd was 20 nM in the experiment with CCR7 (JVM-13) and 27 nM with CCR7 (CCL-AAT).

Substance IgG 150503 R&D Systems registered an EC50 with human CCR7-CHO cells of 5.9 nM.

In experiment [1], “Mouse monoclonal IgG2A anti-human CCR7, clone 150503 (R&D Systems MAB197) (antibody)” displayed an IC50 of inhibition of Ca-flux induced by 15 nM CCL19, Chem-1 CCR7 human cells of 10 nM and an inhibition of chemotaxis of CLL-AAT cells toward 30 nM CCL19, 500 nM IgG of 60%. Also, the EC50 in experiment [2] came to 6.9 nM.

In turn, “IgG 3D12 (eBioscience), anti-human CCR7 control (antibody)” gave an EC50 in experiment [2] of 3.4 nM.

In the case of “Rat IgG2A anti-mouse CCR7, clone 4B12 (R&D Systems MAB3477) (antibody)”, the EC50 with mouse CCR7 (mouse) amounted to 73.5 nM.

These data come from patent publication US20150344580A1.
